Several values for one entry are separate records, joined by “and”; a condition that tells them apart may be missing. Equal entries are not always repeated. Where two headings read alike, the source gives them in different places.

In assay [1] the target is CAT-2200 lambda light chain T131K_V133S. The assay can be described thus: LCCA, SPR.
For assay [2] the target is unchanged. In words: LCCA, SPR. This is another data set of the same source.
In assay [3] the target is CAT-2200 lambda light chain E124Q_T131K. The assay can be described thus: LCCA, SPR.
For assay [4], the target named is CAT-2200 lambda light chain E124Q_T131R. In words: LCCA, SPR.
Assay [5] concerns the target CAT-2200 lambda light chain E124Q_T131K. The assay can be described thus: LCCA, SPR. This is another data set of the same source.
The target in assay [6] is CAT-2200 lambda light chain E124Q_T131R. The assay can be described thus: LCCA, SPR. This is another data set of the same source.
Assay [7] has the same target. The assay can be described thus: LCCA, SPR. This is another data set of the same source.
The target of assay [8] is CAT-2200 lambda light chain V133D_Y178T. The assay can be described thus: LCCA, SPR.
Assay [9] shares this target. In words: LCCA, SPR. The source holds these as a separate data set.
For assay [10], the target named is CAT-2200 lambda light chain T131S_V133D_Y178T. In words: LCCA, SPR.
In assay [11] the target is CAT-2200 lambda light chain V133D_Y178T. In words: LCCA, SPR. This is another data set of the same source.
Assay [12] deals with His-tagged Influenza B Hemagglutinin (B/Brisbane/60/2008) (Influenza B (B/Brisbane/60/2008)).
Assay [13] has as its target Pertuzumab kappa light chain S176K_T178K. The assay can be described thus: LCCA, SPR.
Assay [14] concerns the target Pertuzumab kappa light chain S176K_T178R. In words: LCCA, SPR.
In assay [15] the target is Pertuzumab kappa light chain S131R_V133T_L135K_T178S. In words: LCCA, SPR.
Assay [16] concerns the target Pertuzumab kappa light chain V133G_S176D_T178E. The assay can be described thus: LCCA, SPR.
The target in assay [17] is Pertuzumab kappa light chain V133G_S176D_T180E. In words: LCCA, SPR.
Assay [18] deals with Pertuzumab kappa light chain V133G_S176D_T178E. The assay can be described thus: LCCA, SPR. This is another data set of the same source.
Assay [19] has as its target Pertuzumab kappa light chain V133G_S176D_T180E. The assay can be described thus: LCCA, SPR. The source holds these as a separate data set.
In assay [20] the target is Pertuzumab kappa light chain V133G_L135W_S176D_T180E. In words: LCCA, SPR tag read-out.
Assay [21] shares this target. The assay can be described thus: LCCA, SPR tag read-out. This is another data set of the same source.
The target in assay [22] is CAT-2200 lambda light chain K129T_V133D. In words: LCCA, SPR.
Assay [23] has as its target Pertuzumab kappa light chain Q124K_V133A_T178R. The assay can be described thus: LCCA, SPR.
Assay [24] has as its target Pertuzumab kappa light chain Q124R_Q160K_T178R (L2), HA-tagged. The assay can be described thus: LCCA, SPR of light-chain tags.
Assay [25] has as its target Pertuzumab kappa light chain Q124R_T178R (L2), HA-tagged. The assay can be described thus: LCCA, SPR of light-chain tags.
Assay [26] addresses Pertuzumab kappa light chain Q124R_Q160K_T178R (L2), HA-tagged. The assay can be described thus: LCCA, SPR of light-chain tags. This is another data set of the same source.
In assay [27] the target is Pertuzumab kappa light chain Q124R_T178R (L2), HA-tagged. In words: LCCA, SPR of light-chain tags. This is another data set of the same source.
The target in assay [28] is Pertuzumab kappa light chain V133D_Q160E. In words: LCCA, SPR.
Assay [29] has as its target Pertuzumab kappa light chain V133D. In words: LCCA, SPR.
The target of assay [30] is Pertuzumab kappa light chain Q124E_V133D_L135W. In words: LCCA, SPR tag read-out.
Assay [31] has as its target CAT-2200 lambda light chain E124Q_T131K_V133S. In words: LCCA, SPR tag read-out.
Assay [32] concerns the target Pertuzumab kappa light chain Q124E_V133D. In words: LCCA, SPR.
The target is the same in assay [33]. In words: LCCA, SPR. This is another data set of the same source.
Assay [34] addresses Pertuzumab kappa light chain S131K_S176A_T178S. In words: LCCA, SPR.
The target in assay [35] is Pertuzumab kappa light chain S131K_T178S. The assay can be described thus: LCCA, SPR.
The target of assay [36] is Pertuzumab kappa light chain S131K_S176A_T178S. In words: LCCA, SPR. The source holds these as a separate data set.
Assay [37] addresses Pertuzumab kappa light chain S131K_T178S. The assay can be described thus: LCCA, SPR. The source holds these as a separate data set.
Assay [38] addresses CAT-2200 lambda light chain S176A_Y178W (L1), FLAG-tagged. The assay can be described thus: LCCA, SPR of light-chain tags.
Assay [39] has as its target Pertuzumab kappa light chain S176A_T178A (L2), HA-tagged. The assay can be described thus: LCCA, SPR of light-chain tags.
For assay [40], the target named is Pertuzumab kappa light chain L135A (L2), N-terminal HA tag. The assay can be described thus: LCCA, SPR of light chain tags.
For assay [41], the target named is Pertuzumab kappa light chain, wild type (L2), N-terminal HA tag. The assay can be described thus: LCCA, SPR of light chain tags.
Assay [42] has as its target CAT-2200 lambda light chain T116F_S176F (L1), N-terminal FLAG tag. In words: LCCA, SPR of light chain tags.
In assay [43] the target is Pertuzumab kappa light chain L135A (L2), N-terminal HA tag. The assay can be described thus: LCCA, SPR of light chain tags. This is another data set of the same source.
The target in assay [44] is Pertuzumab kappa light chain L135A_T178F (L2), N-terminal HA tag. The assay can be described thus: LCCA, SPR of light chain tags.
Assay [45] concerns the target Pertuzumab kappa light chain T178F (L2), N-terminal HA tag. The assay can be described thus: LCCA, SPR of light chain tags.
Assay [46] has as its target Pertuzumab kappa light chain, wild type (L2), N-terminal HA tag. The assay can be described thus: LCCA, SPR of light chain tags. This is another data set of the same source.
Assay [47] addresses Pertuzumab light chain (kappa) Q124E_V133D, HA-tagged. In words: LCCA.
Assay [48] shares this target. In words: LCCA. The source holds these as a separate data set.
Assay [49] addresses CAT-2200 light chain (lambda) E124Q_T131K, FLAG-tagged. In words: LCCA.
For assay [50], the target named is CAT-2200 light chain (lambda) E124Q_T131R, FLAG-tagged. In words: LCCA.

As to “CAT-2200 Fab heavy chain L143D_K145T_Q179E”, the H1L1:H1L2 normalized median scalar value ln(r1/f1) turned out to be 0.41 in assay [1] and 0.58 in [2].

With “CAT-2200 Fab heavy chain L143E_K145T_Q179E”, the H1L1:H1L2 normalized median scalar value ln(r1/f1) was -0.04 in [3]; 0.28 in [4]; 3.04 in [5]; 2.87 in assay [6]; 1.65 in assay [7].

Regarding CAT-2200 Fab heavy chain S186K_S188T, the H1L1:H1L2 normalized median scalar value ln(r1/f1) in [8] was 0.91; in assay [9] it was 1.84; in assay [10], -0.34; in assay [11], 0.54.

The Kd is the free concentration of one partner at which half of the binding sites on the other are occupied at equilibrium, for simple one-to-one binding. “CR8071 wild type one-armed antibody (OAA), FLAG-tagged light chain” registered a dissociation constant Kd in [12] of 0.332 nM.

In the case of “CR8071 wild type one-armed antibody (OAA), no tags”, the Kd in [12] is 0.385 nM and 0.379 nM.

Take “Pertuzumab Fab heavy chain K145T_V177D_S188D”: the values for the H2L2:H2L1 normalized median ratio in assay [8] and in assay [13] were 16% and 84%, respectively. Also, the H2L2:H2L1 normalized median scalar value ln(r1/f1) in assay [13] amounted to 1.68; in assay [14], 1.5.

As to “Pertuzumab Fab heavy chain L124E_L143E_K145T”, the H2L2:H2L1 normalized median scalar value ln(r1/f1) in assay [15] is 0.62.

As for Pertuzumab Fab heavy chain L124R_Q179K, the H2L2:H2L1 normalized median scalar value ln(r1/f1) was determined as 0.69 in assay [16], 0.97 in assay [17], 0.77 in [18] and 0.95 in [19]. Besides, the H2L2:H2L1 normalized median ratio in assay [17] was found to be 73%; in assay [3], 28%; in assay [4] it was 27%; in assay [19], 72%; in assay [6], 33%. Also, the H2L2:H2L1 median scalar value in assay [20] was -0.52 ln(ratio); in assay [21], -0.41 ln(ratio).

Take “Pertuzumab Fab heavy chain L124W_L143E_K145T_Q179E”: the H2L2:H2L1 normalized median ratio in assay [22] is 8%. Moreover, in assay [23], the H2L2:H2L1 normalized median ratio is 92% and the H2L2:H2L1 normalized median scalar value ln(r1/f1) stood at 2.51.

On to “Pertuzumab Fab heavy chain L143E_K145T_Q179E (H2)”, for which the H2L2:H2L1 normalized median scalar value ln(r1/f1) amounted to 2.62 in assay [24], 2.22 in assay [25], 3.21 in assay [26] and 3.16 in assay [27].

Consider Pertuzumab Fab heavy chain L143I_S186K, for which the H2L2:H2L1 normalized median scalar value ln(r1/f1) turned out to be 1.5 in assay [28] and 0.92 in assay [29]. In addition, the H2L2:H2L1 normalized median ratio in [29] was 72%; in assay [1], 28%; in assay [30], 84%; in [31], 16%. For the same substance, the H2L2:H2L1 median scalar value in assay [30] was 1.69 ln(ratio).

For the substance Pertuzumab Fab heavy chain L143K, the H2L2:H2L1 normalized median ratio in [32] stood at 91%; in assay [3], 8%; in [4] it was 9%; in assay [33], 92%. Moreover, the H2L2:H2L1 normalized median scalar value ln(r1/f1) in assay [32] was determined as 2.3; in assay [33], 2.48.

Turning to Pertuzumab Fab heavy chain L143T_S188D, the H2L2:H2L1 normalized median scalar value ln(r1/f1) in assay [34] was 1.51; in assay [35], 0.84; in [36], 0.15; in [37] it was -0.25. The results for the H2L2:H2L1 normalized median ratio in assay [36] and in [11] were 54% and 46%, respectively.

On to “Pertuzumab Fab heavy chain S186L_S188W (H2)”, for which, in assay [38], the H2L2:H2L1 normalized median ratio (H2L1 share) is 33%. In addition, in [39], the H2L2:H2L1 normalized median ratio, H2L2 share is 67% and the H2L2:H2L1 normalized median scalar value ln(r1/f1) is 0.7.

Turning to “Pertuzumab Fab heavy chain V190F (H2), ABD2-His6 tagged”, the H2L2:H2L1 normalized median ratio in assay [40] was found to be 42%; in assay [41], 65%; in assay [42], 29%; in assay [43], 44%; in assay [44] it was 60%; in [45], 71%. Moreover, the H2L2:H2L1 normalized median ratio in [46] turned out to be 62%. The H2L2:H2L1 normalized median scalar value ln(r1/f1) in assay [40] is -0.34; in assay [41] it was 0.6; in [43], -0.26; in assay [44], 0.41; in assay [45], 0.9; in assay [46], 0.47.

Regarding “Pertuzumab heavy chain Fab construct L143K”, the H2L2:H2L1 normalized median ratio, H2L2 share was found to be 92% in assay [47] and 91% in assay [48]. In addition, the H2L2:H2L1 normalized median scalar value ln(r1/f1) was 2.48 in assay [47] and 2.3 in [48]. The H2L2:H2L1 normalized median ratio (H2L1 share) in [49] is 8%; in assay [50] it was 9%.

In the case of “Pertuzumab heavy chain Fab construct L143R”, in assay [48], the H2L2:H2L1 normalized median ratio, H2L2 share was 96% and the H2L2:H2L1 normalized median scalar value ln(r1/f1) is 3.06. Further, the H2L2:H2L1 normalized median ratio (H2L1 share) in assay [50] was determined as 4%.

Source of the values: patent US20190338048A1.
